In the FLAb antibody collection (doi:10.7554/elife.23156):

B1: scFv; the commonest letter at each place (parent)
chain 1: EVKLDETGGGLVQPGRPMKLSCVASGFTFSDYWMNWVRQSPEKGLEWVAQIRNKPYNYETYYSDSVKGRFTISRDDSKSSVYLQMNNLRVEDMGIYYCTGSYYGMDYWGQGTSVTVS
chain 2: DVVMTQTPLSLPVSLGDQASISCRSSQSLVHSNGNTYLRWYLQKPGQSPKVLIYKVSNRFSGVPDRFSGSGSGTDFTLKISRVEAEDLGVYFCSQSTHVPWTFGGGTKLEIK

Experiments:
fluorescein = variants of: B1; test: Kd (Tite-Seq); conditions: with fluorescein; format: scFv 4-4-20, heavy + light
[1] = variants of: B1; test: yeast surface expression (ratio to wild type); higher = more expressed; conditions: format: scFv 4-4-20, heavy + light

Row | Variant | Kd (fluorescein) [µM] | yeast surface expression [1]
1 | chain 1 S101R D106T | ≥ 10 | 0.466
2 | chain 1 S101M | ≥ 10 | 0.591
3 | chain 1 S101N | ≥ 10 | 0.886
4 | chain 1 S101Y | ≥ 10 | 0.659
5 | chain 1 S101T | ≥ 10 | 0.88
6 | chain 1 S101R | ≥ 10 | 0.731
7 | chain 1 S101K | ≥ 10 | 0.463
8 | chain 1 S101N Y107M | ≥ 10 | 0.616
9 | chain 1 S101T D106Q | ≥ 10 | 0.796
10 | chain 1 T28C F29P | ≥ 10 | 0.637
11 | chain 1 S101W Y102Q W108A | ≥ 10 | 0.239
12 | chain 1 T28D V37Q | 0.000804 | 0.726
13 | chain 1 T28D V37G | 0.205 | 1.16
14 | chain 1 S101M G109W | ≥ 10 | 0.231
15 | chain 1 S101Y G109K | ≥ 10 | 0.212
16 | chain 1 S101N M105P | ≥ 10 | 0.537
17 | chain 1 S101I Y102M | ≥ 10 | 0.621
18 | chain 1 S101I Y102W | ≥ 10 | 0.303
19 | chain 1 S101I Y102L | ≥ 10 | 0.376
20 | chain 1 T28E D31K | 0.00184 | 0.969
21 | chain 1 S101T Y103E G104K | ≥ 10 | 0.854
22 | chain 1 T28F F29R | ≥ 10 | 0.797
23 | chain 1 S101W Y103R G104S | ≥ 10 | 0.468
24 | chain 1 S101I Y107Q | ≥ 10 | 0.376
25 | chain 1 S101T Y102H | ≥ 10 | 0.748
26 | chain 1 S101I Y103T W108D | ≥ 10 | 0.293

Row | Variant | Kd (fluorescein) [µM] | yeast surface expression [1]
27 | chain 1 S101N Y102M | ≥ 10 | 0.944
28 | chain 1 T28D D31L | 0.000804 | 0.935
29 | chain 1 T28A W33I | ≥ 10 | 1.15
30 | chain 1 T28A W33S | ≥ 10 | 0.826
31 | chain 1 T28E Y32V | ≥ 10 | 1.14
32 | chain 1 T28F M34A | 0.0189 | 0.566
33 | chain 1 S101L M105F | ≥ 10 | 0.521
34 | chain 1 S101L Y103Q | ≥ 10 | 0.786
35 | chain 1 S101L Y103I | ≥ 10 | 0.229
36 | chain 1 S101L Y103K | ≥ 10 | 0.524
37 | chain 1 S101L Y103R | ≥ 10 | 0.702
38 | chain 1 S101W G109V | ≥ 10 | 0.224
39 | chain 1 S101W D106S | ≥ 10 | 0.516
40 | chain 1 T28G Y32K | 7.33 | 0.795
41 | chain 1 S101R G104P | ≥ 10 | 0.361
42 | chain 1 S101T Y103P | ≥ 10 | 0.643
43 | chain 1 S101T Y103Q | ≥ 10 | 1.11
44 | chain 1 S101V Y103F D106V | ≥ 10 | 0.283
45 | chain 1 T28E F29Y | 0.00468 | 1.01
46 | chain 1 T28F S30T | 0.00468 | 0.857
47 | chain 1 S101P Y102V W108C | ≥ 10 | 0.1
48 | chain 1 S101L Y102W | ≥ 10 | 0.407
49 | chain 1 S101M Y103A | ≥ 10 | 0.658
50 | chain 1 S101M Y103G | ≥ 10 | 0.868
51 | chain 1 S101P W108T | ≥ 10 | 0.168

Now from value to variant, other results behind:

Row | Kd (fluorescein) [µM] | Variant | yeast surface expression [1]
52 | ≥ 10 | chain 1 S101Y Y107E | 0.625
53 | ≥ 10 | chain 1 S101Y Y107P | 0.489
54 | 0.0015 | chain 1 T28D S30P | 1.24
55 | ≥ 10 | chain 1 S101Q G109S | 0.645
56 | ≥ 10 | chain 1 S101R D106L | 0.0991
57 | ≥ 10 | chain 1 S101R D106N | 0.225
58 | ≥ 10 | chain 1 S101P Y107F W108F | 0.239
59 | ≥ 10 | chain 1 T28A N35C | 0.665
60 | ≥ 10 | chain 1 T28D D31E V37E | 0.567
61 | ≥ 10 | chain 1 S101Q | 0.788
62 | ≥ 10 | chain 1 S101L | 0.497
63 | ≥ 10 | chain 1 S101W | 0.618
64 | ≥ 10 | chain 1 S101V | 0.496
65 | ≥ 10 | chain 1 S101P | 0.244
66 | ≥ 10 | chain 1 S101L G104S | 0.326
67 | ≥ 10 | chain 1 S101L G104I | 0.452
68 | ≤ 0.000316 | chain 1 T28D V37C | 0.886
69 | ≥ 10 | chain 1 T28A D31C N35A | 0.411
70 | 0.00638 | chain 1 T28C D31S | 0.694
71 | 0.0113 | chain 1 T28C D31Q | 0.575
72 | ≥ 10 | chain 1 S101M G109H | 0.229
73 | ≥ 10 | chain 1 S101P G104W | 0.299

Row | Kd (fluorescein) [µM] | Variant | yeast surface expression [1]
74 | ≥ 10 | chain 1 S101T Y107E | 0.565
75 | ≥ 10 | chain 1 S101I Y102T | 0.614
76 | ≥ 10 | chain 1 S101I Y102V | 0.488
77 | ≥ 10 | chain 1 S101K Y102I | 0.647
78 | ≥ 10 | chain 1 T28F F29H | 0.638
79 | ≥ 10 | chain 1 S101I Y107K | 0.29
80 | ≥ 10 | chain 1 T28E S30I W33I | 0.628
81 | ≥ 10 | chain 1 S101T Y102M | 0.778
82 | ≥ 10 | chain 1 S101L Y103W Y107W | 0.29
83 | ≥ 10 | chain 1 T28C D31F M34A | 0.672
84 | ≥ 10 | chain 1 S101Y Y102W M105T | 0.507
85 | ≥ 10 | chain 1 S101V Y102V | 0.432
86 | ≥ 10 | chain 1 S101V Y102E | 0.509
87 | 0.0318 | chain 1 T28E Y32R | 0.928
88 | ≥ 10 | chain 1 S101L M105L | 0.334
89 | ≥ 10 | chain 1 S101Q Y102D W108I | 0.495
90 | ≥ 10 | chain 1 T28G M34P N35T | 0.318
91 | ≥ 10 | chain 1 S101P D106G W108F | 0.244
92 | ≥ 10 | chain 1 S101V D106I Y107C | 0.165
93 | 3.94 | chain 1 T28D M34G | 0.865
94 | ≥ 10 | chain 1 S101W G109T | 0.212
95 | ≥ 10 | chain 1 T28D F29T W36L | 0.514

Row | Kd (fluorescein) [µM] | Variant | yeast surface expression [1]
96 | ≥ 10 | chain 1 S101T G104F | 0.437
97 | ≥ 10 | chain 1 T28C V37N | 0.357
98 | ≥ 10 | chain 1 S101Y Y102N D106Y | 0.501
99 | ≥ 10 | chain 1 S101W D106I | 0.296
100 | ≥ 10 | chain 1 T28G Y32M | 1.24
101 | 0.00158 | chain 1 T28F V37C | 0.588
102 | 0.000589 | chain 1 T28F V37P | 0.417
103 | ≥ 10 | chain 1 S101R G104T | 0.647
104 | ≥ 10 | chain 1 S101V M105H W108H | 0.3
105 | ≥ 10 | chain 1 S101Y W108V | 0.397
106 | ≥ 10 | chain 1 T28C W33L | 0.742
107 | 0.00827 | chain 1 T28E F29Q | 1
108 | ≥ 10 | chain 1 S101Q Y102R | 1.07
109 | ≥ 10 | chain 1 S101L Y102A | 0.514
110 | ≥ 10 | chain 1 S101L Y102V | 0.401
111 | ≥ 10 | chain 1 T28E M34R | 0.531
112 | 0.0592 | chain 1 T28E M34S | 0.742
113 | ≥ 10 | chain 1 S101L G109I | 0.297
114 | ≥ 10 | chain 1 S101M Y103D | 0.917
115 | ≥ 10 | chain 1 T28A W33R N35I | 0.622
